Tests used:
[1] = target: SARS-CoV-2 RBD-5GS-1TD0 (SARS-CoV-2 | not stated) (UniProt P0DTC2); test: SDS-PAGE
[2] = target: SARS-CoV-1 RBD-5GS-1TD0 (SARS-CoV-1 | not stated); test: SDS-PAGE

Substance	stoichiometry N [1]	stoichiometry N [2]
SARS-CoV-2 RBD-5GS-1TD0 (from UniProt P0DTC2 330-532) (domain or fragment)	3	–
SARS-CoV-1 RBD-5GS-1TD0 (domain or fragment)	–	3
